The values below come from PMC3176292, “Mutations in Protein-Binding Hot-Spots on the Hub Protein Smad3 Differentially Affect Its Protein Interactions and Smad3-Regulated Gene Expression” (PLoS ONE, 2011).

Holding throughout (test): co-IP; LUMIER: Renilla luciferase-Smad3 and Flag-tagged partner co-expressed with constitutively active Alk5 in HEK-293; Flag protein captured from cleared lysate (TNE: 10 mM Tris-HCl pH 7.8, 150 mM NaCl, 1 mM EDTA, 1% Igepal CA-630) on anti-Flag 96-well plates, 2 h at 4 °C; co-precipitated Renilla luciferase activity, TrxGA background subtracted, percent of wild-type Smad3
Common to all, as to details: partners not purified

Assay [1] concerns the target T1, Flag-SARA, full length (UniProt O95405 1-1425).
T1 construct: SARA; plasmid pCMV5b-Flag-SARA; also called SARA FL; source: HEK-293, transfected, in lysate
T1 sequence (looked up): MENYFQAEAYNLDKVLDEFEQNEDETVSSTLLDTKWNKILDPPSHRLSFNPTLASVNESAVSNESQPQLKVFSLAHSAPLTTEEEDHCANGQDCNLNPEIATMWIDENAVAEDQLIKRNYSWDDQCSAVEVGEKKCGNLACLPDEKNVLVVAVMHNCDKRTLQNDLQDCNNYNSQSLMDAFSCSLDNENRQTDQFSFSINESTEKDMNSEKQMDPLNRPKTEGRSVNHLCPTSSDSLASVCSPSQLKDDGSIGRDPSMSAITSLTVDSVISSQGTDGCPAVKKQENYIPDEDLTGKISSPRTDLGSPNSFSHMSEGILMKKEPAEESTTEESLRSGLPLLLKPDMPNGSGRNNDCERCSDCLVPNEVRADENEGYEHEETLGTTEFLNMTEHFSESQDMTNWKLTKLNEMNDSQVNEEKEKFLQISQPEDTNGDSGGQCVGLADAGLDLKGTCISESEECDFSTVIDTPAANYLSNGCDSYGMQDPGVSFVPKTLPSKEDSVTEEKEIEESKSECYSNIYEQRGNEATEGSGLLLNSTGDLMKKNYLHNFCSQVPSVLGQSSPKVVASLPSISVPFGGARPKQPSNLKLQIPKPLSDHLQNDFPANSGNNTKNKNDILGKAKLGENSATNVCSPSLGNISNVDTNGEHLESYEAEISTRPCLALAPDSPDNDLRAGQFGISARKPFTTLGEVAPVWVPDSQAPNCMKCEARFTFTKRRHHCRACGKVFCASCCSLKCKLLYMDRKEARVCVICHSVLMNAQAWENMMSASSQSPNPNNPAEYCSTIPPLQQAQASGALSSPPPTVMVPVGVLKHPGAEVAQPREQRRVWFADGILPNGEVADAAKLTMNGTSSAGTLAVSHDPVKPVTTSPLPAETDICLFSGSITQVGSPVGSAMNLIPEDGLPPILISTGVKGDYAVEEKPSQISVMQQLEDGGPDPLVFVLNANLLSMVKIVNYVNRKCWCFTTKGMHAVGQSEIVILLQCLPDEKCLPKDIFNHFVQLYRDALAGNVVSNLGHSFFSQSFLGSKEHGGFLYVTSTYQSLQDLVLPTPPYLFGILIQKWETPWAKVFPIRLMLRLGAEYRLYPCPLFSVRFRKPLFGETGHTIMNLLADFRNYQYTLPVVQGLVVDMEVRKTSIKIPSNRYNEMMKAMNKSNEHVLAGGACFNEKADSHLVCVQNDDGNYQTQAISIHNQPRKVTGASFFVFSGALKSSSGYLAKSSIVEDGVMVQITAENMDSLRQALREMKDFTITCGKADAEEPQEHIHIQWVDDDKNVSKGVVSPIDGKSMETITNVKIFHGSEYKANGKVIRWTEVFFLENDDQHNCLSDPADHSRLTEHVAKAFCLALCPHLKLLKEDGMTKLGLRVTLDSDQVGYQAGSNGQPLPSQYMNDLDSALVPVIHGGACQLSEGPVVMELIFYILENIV

In assay [2] the target is T2, Flag-Smad4, full length (UniProt Q13485 1-552).
T2 construct: Smad4; plasmid pCMV5-Flag-Smad4 (from J. Massagué); also called Smad4 FL; source: HEK-293, transfected, in lysate
T2 sequence (looked up): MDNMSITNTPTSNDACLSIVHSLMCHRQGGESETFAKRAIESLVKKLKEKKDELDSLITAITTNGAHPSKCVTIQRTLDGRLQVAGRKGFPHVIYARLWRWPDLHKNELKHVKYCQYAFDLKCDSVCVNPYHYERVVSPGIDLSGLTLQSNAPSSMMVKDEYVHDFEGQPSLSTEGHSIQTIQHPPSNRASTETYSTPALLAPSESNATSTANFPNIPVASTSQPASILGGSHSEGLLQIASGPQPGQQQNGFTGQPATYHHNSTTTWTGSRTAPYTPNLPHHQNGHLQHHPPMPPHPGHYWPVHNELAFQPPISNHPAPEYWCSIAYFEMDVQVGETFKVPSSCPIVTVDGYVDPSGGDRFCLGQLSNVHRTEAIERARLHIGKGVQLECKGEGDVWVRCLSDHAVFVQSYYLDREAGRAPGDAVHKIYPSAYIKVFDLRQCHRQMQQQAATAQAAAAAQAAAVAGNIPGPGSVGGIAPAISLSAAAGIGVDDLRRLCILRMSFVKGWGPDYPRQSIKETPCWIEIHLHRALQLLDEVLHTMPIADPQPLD

For assay [3], the target named is T3, Ski Smad-binding domain (amino acids 2–56) on the 3xFlag-thioredoxin scaffold (UniProt P12755 2-56).
T3 construct: Ski, amino acids 2–56; cloned into the unique RsrII site of pCI-3xFLAG-Trx; also called Ski aa2–56; TrxSki; source: HEK-293, transfected, in lysate
T3 sequence (looked up): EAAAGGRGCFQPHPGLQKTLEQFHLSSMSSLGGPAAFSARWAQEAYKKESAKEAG

B1: Renilla luciferase-Smad3 Q322A/Y324A (natural protein, UniProt P84022 1-425, looked up)
chain: MSSILPFTPPIVKRLLGWKKGEQNGQEEKWCEKAVKSLVKKLKKTGQLDELEKAITTQNVNTKCITIPRSLDGRLQVSHRKGLPHVIYCRLWRWPDLHSHHELRAMELCEFAFNMKKDEVCVNPYHYQRVETPVLPPVLVPRHTEIPAEFPPLDDYSHSIPENTNFPAGIEPQSNIPETPPPGYLSEDGETSDHQMNHSMDAGSPNLSPNPMSPAHNNLDLQPVTYCEPAFWCSISYYELNQRVGETFHASQPSMTVDGFTDPSNSERFCLGLLSNVNRNAAVELTRRHIGRGVRLYYIGGEVFAECLSDSAIFVQSPNCNARAGWHPATVCKIPPGCNLKIFNNQEFAALLAQSVNQGFEAVYQLTRMCTIRMSFVKGWGAEYRRQTVTSTPCWIELHLNGPLQWLDKVLTQMGSPSIRCSSVS
notes: Smad3; source: HEK-293, transfected together with constitutively active Alk5, in lysate
With B1, the entries for the “percent binding relative to wild-type Smad3” value in assay [1], in assay [2] and in assay [3] were 12%, 124% and 237%, respectively.

B2: Renilla luciferase-Smad3 S254A (natural protein, UniProt P84022 1-425, looked up)
chain: MSSILPFTPPIVKRLLGWKKGEQNGQEEKWCEKAVKSLVKKLKKTGQLDELEKAITTQNVNTKCITIPRSLDGRLQVSHRKGLPHVIYCRLWRWPDLHSHHELRAMELCEFAFNMKKDEVCVNPYHYQRVETPVLPPVLVPRHTEIPAEFPPLDDYSHSIPENTNFPAGIEPQSNIPETPPPGYLSEDGETSDHQMNHSMDAGSPNLSPNPMSPAHNNLDLQPVTYCEPAFWCSISYYELNQRVGETFHASQPAMTVDGFTDPSNSERFCLGLLSNVNRNAAVELTRRHIGRGVRLYYIGGEVFAECLSDSAIFVQSPNCNQRYGWHPATVCKIPPGCNLKIFNNQEFAALLAQSVNQGFEAVYQLTRMCTIRMSFVKGWGAEYRRQTVTSTPCWIELHLNGPLQWLDKVLTQMGSPSIRCSSVS
notes: as for B1
Turning to B2, the results for the “percent binding relative to wild-type Smad3” value in assay [1], in assay [2] and in assay [3] were 154%, 101% and 10%, respectively.

B3: Renilla luciferase-Smad3 V224A (natural protein, UniProt P84022 1-425, looked up)
chain: MSSILPFTPPIVKRLLGWKKGEQNGQEEKWCEKAVKSLVKKLKKTGQLDELEKAITTQNVNTKCITIPRSLDGRLQVSHRKGLPHVIYCRLWRWPDLHSHHELRAMELCEFAFNMKKDEVCVNPYHYQRVETPVLPPVLVPRHTEIPAEFPPLDDYSHSIPENTNFPAGIEPQSNIPETPPPGYLSEDGETSDHQMNHSMDAGSPNLSPNPMSPAHNNLDLQPATYCEPAFWCSISYYELNQRVGETFHASQPSMTVDGFTDPSNSERFCLGLLSNVNRNAAVELTRRHIGRGVRLYYIGGEVFAECLSDSAIFVQSPNCNQRYGWHPATVCKIPPGCNLKIFNNQEFAALLAQSVNQGFEAVYQLTRMCTIRMSFVKGWGAEYRRQTVTSTPCWIELHLNGPLQWLDKVLTQMGSPSIRCSSVS
notes: as for B1
As to B3, the “percent binding relative to wild-type Smad3” value in assay [1] worked out at 42%; in assay [2], 122%; in assay [3], 524%.

B4: Renilla luciferase-Smad3 W406A (natural protein, UniProt P84022 1-425, looked up)
chain: MSSILPFTPPIVKRLLGWKKGEQNGQEEKWCEKAVKSLVKKLKKTGQLDELEKAITTQNVNTKCITIPRSLDGRLQVSHRKGLPHVIYCRLWRWPDLHSHHELRAMELCEFAFNMKKDEVCVNPYHYQRVETPVLPPVLVPRHTEIPAEFPPLDDYSHSIPENTNFPAGIEPQSNIPETPPPGYLSEDGETSDHQMNHSMDAGSPNLSPNPMSPAHNNLDLQPVTYCEPAFWCSISYYELNQRVGETFHASQPSMTVDGFTDPSNSERFCLGLLSNVNRNAAVELTRRHIGRGVRLYYIGGEVFAECLSDSAIFVQSPNCNQRYGWHPATVCKIPPGCNLKIFNNQEFAALLAQSVNQGFEAVYQLTRMCTIRMSFVKGWGAEYRRQTVTSTPCWIELHLNGPLQALDKVLTQMGSPSIRCSSVS
notes: as for B1
As for B4, the “percent binding relative to wild-type Smad3” value in assay [1] turned out to be 12%; in assay [2], 109%; in assay [3] it was 5%.

B5: Renilla luciferase-Smad3 W326A (natural protein, UniProt P84022 1-425, looked up)
chain: MSSILPFTPPIVKRLLGWKKGEQNGQEEKWCEKAVKSLVKKLKKTGQLDELEKAITTQNVNTKCITIPRSLDGRLQVSHRKGLPHVIYCRLWRWPDLHSHHELRAMELCEFAFNMKKDEVCVNPYHYQRVETPVLPPVLVPRHTEIPAEFPPLDDYSHSIPENTNFPAGIEPQSNIPETPPPGYLSEDGETSDHQMNHSMDAGSPNLSPNPMSPAHNNLDLQPVTYCEPAFWCSISYYELNQRVGETFHASQPSMTVDGFTDPSNSERFCLGLLSNVNRNAAVELTRRHIGRGVRLYYIGGEVFAECLSDSAIFVQSPNCNQRYGAHPATVCKIPPGCNLKIFNNQEFAALLAQSVNQGFEAVYQLTRMCTIRMSFVKGWGAEYRRQTVTSTPCWIELHLNGPLQWLDKVLTQMGSPSIRCSSVS
notes: as for B1
With B5, the “percent binding relative to wild-type Smad3” value in assay [1] was determined as 13%; in assay [2] it was 194%; in assay [3], 292%.

B6: Renilla luciferase-Smad3 V356R (natural protein, UniProt P84022 1-425, looked up)
chain: MSSILPFTPPIVKRLLGWKKGEQNGQEEKWCEKAVKSLVKKLKKTGQLDELEKAITTQNVNTKCITIPRSLDGRLQVSHRKGLPHVIYCRLWRWPDLHSHHELRAMELCEFAFNMKKDEVCVNPYHYQRVETPVLPPVLVPRHTEIPAEFPPLDDYSHSIPENTNFPAGIEPQSNIPETPPPGYLSEDGETSDHQMNHSMDAGSPNLSPNPMSPAHNNLDLQPVTYCEPAFWCSISYYELNQRVGETFHASQPSMTVDGFTDPSNSERFCLGLLSNVNRNAAVELTRRHIGRGVRLYYIGGEVFAECLSDSAIFVQSPNCNQRYGWHPATVCKIPPGCNLKIFNNQEFAALLAQSRNQGFEAVYQLTRMCTIRMSFVKGWGAEYRRQTVTSTPCWIELHLNGPLQWLDKVLTQMGSPSIRCSSVS
notes: as for B1
In the case of B6, the entries for the “percent binding relative to wild-type Smad3” value in assay [1], in assay [2] and in assay [3] were 16%, 233% and 2%, respectively.
